The text below walks through data of the supplement of paper PMC9170038.

Conditions in all cases: FMN input: 0 or 200 uM; Eterna round: R93 (includes R88 designs)
The subject of series [1] is MS2 coat protein. The series is described as follows: apparent KD of MS2 coat protein, switch OFF state (with FMN for OFF switches, without FMN for ON switches); designed switch direction (-1 OFF switch, 1 ON switch): 1; higher = weaker reporter binding. The method in brief:
(§1)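 Illumina sequencing clusters served as templates for on-chip transcription of the designed RNA switches. SNAP-549-labelled MS2 coat protein was then titrated in twofold steps from 0.7 or 1.5 nM to 3 µM, allowing 0.8–1.5 h per step at first and 10–20 min per step later. The buffer held 100 mM Tris-HCl pH 7.5, 80 mM KCl and 4 mM MgCl2, without or with constant ligand. Apparent KD is the median per design of normalised cluster binding-curve fits.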

Series [2] concerns MS2 coat protein. The series is described as follows: apparent KD of MS2 coat protein, switch ON state; designed switch direction (-1 OFF switch, 1 ON switch): 1; higher = weaker reporter binding. The method in brief:
as §1

For series [3], the system named is MS2 coat protein. Nature of the series: apparent KD of MS2 coat protein, switch ON state; designed switch direction (-1 OFF switch, 1 ON switch): -1; higher = weaker reporter binding. The method in brief: as §1
Series [4] relates to MS2 coat protein. The series is described as follows: apparent KD of MS2 coat protein, switch OFF state (with FMN for OFF switches, without FMN for ON switches); designed switch direction (-1 OFF switch, 1 ON switch): -1; higher = weaker reporter binding. The method in brief: as §1

On to “AAAAAAAAAAACUAGGAUAUUUAACGGACAACAUGAGGAUCACCCAUGUCACAAAAAAAAAUAGUAAAGAAGGAGUAAAAAAAAAA [Same State 2]”, for which the “apparent KD of MS2 coat protein” value was 23.8 nM with MS2 coat protein [1] and 25 nM with MS2 coat protein [2].
On to “AAAAAAAAAACUGAGGAUAUGAAAUAAUAGACAUGAGGAUCACCCAUGUUUUCGGUCGAAAAAAUGCAGAAGGCAGAAAAAAAAAA [JR_SameState2_Sub3]”, for which the “apparent KD of MS2 coat protein” value with MS2 coat protein [1] amounted to 23.8 nM; with MS2 coat protein [2], 19.4 nM.
Consider “AAAAAAAAAAGCUAGGAUAUCCAAAAAAAAACAUGAGGAUCACCCAUGUAAAAAAAAAAAAAAUGGGAGAAGGAGCAAAAAAAAAA [Mod of Eli]”, for which the “apparent KD of MS2 coat protein” value in the series on MS2 coat protein [1] was 39.6 nM; in the series on MS2 coat protein [2], 28.5 nM.
The like results for “AAAAAAAAAAGUGAGGAUAUGUGAUCGGUGACAUGAGGAUCACCCAUGUGAGGCCUUCGGGCCAAGCAGAAGGUAUAAAAAAAAA [Same State 2-VII]” were, in that order, 29.4 nM and 105 nM.
With “AAAAAAAAAGUAGAGGAUAUCCGAGUGGUAACAUGAGGAUCACCCAUGUGAAGAAAGGAAGAUGAGGAGAAGGCUACAAAAAAAAA [Mat - Mod of Nando]”, the results for the “apparent KD of MS2 coat protein” value in the series on MS2 coat protein [1] and in the series with MS2 coat protein [2] were 42.2 nM and 21.2 nM, respectively.
Turning to “AAAAAACAUGAGGAUCACCCAUGUAAAAAUAUCACAGGAUAUGGAAACACGAAAGUGAAACCAGAAGGGUGAAAAG [77%, Mat - Mod of Eli, 12]”, the “apparent KD of MS2 coat protein” value was determined as 44.1 nM with MS2 coat protein [1] and 20.1 nM in the series on MS2 coat protein [2].
In the case of “AAAAAACAUGAGGAUCACCCAUGUAAUAAAACGUCAGGAUAUUGAUUUUAUUAUUUAUUGCAAGAAGGGACAAAAA [Same State 1 - Omei 2]”, the results for the “apparent KD of MS2 coat protein” value with MS2 coat protein [1] and in the series with MS2 coat protein [2] were 40.3 nM and 20.4 nM, respectively.
As to “AAAAAACAUGAGGAUCACCCAUGUAAUAAAACGUCAGGAUAUUGAUUUUAUUAUUUAUUGCGAGAAGGGACAAAAA [Same State 1 - Omei 3]”, the “apparent KD of MS2 coat protein” value worked out at 28.6 nM with MS2 coat protein [1] and 20.2 nM in the series on MS2 coat protein [2].
For “AAAAAACAUGAGGAUCACCCAUGUAAUUAAAACGCAGGAUAUAGAAAAAAAAAAAUGUUACUAGAAGGGUGAAAAA ['Same State 1']”, in that order: 62.9 nM and 113 nM.
Regarding “AAAAAACAUGAGGAUCACCCAUGUAGAAACAUGGGAGGAUAUACAAAGACGAAAGUCAAAGUAGAAGGCCUAAGAA [Mat - Same State 1 - Mod - D166]”, the figures for the “apparent KD of MS2 coat protein” value in the series on MS2 coat protein [1] and in the series with MS2 coat protein [2] were 58.2 nM and 81.8 nM, respectively.
“GAAAAGUCAGGAUAUGUACAAAAUAAAAUAAAAAUAAAAGUACAGAAGGGACAUGAGGAUCACCCAUGUAAAAG [Mat - Exclusion 4 - Mayanna - D120]”: the results for the “apparent KD of MS2 coat protein” value with MS2 coat protein [3] and with MS2 coat protein [4] were 72.4 nM and 54.2 nM, respectively.
For “GAAAAGUUAGGAUAUACAGAUAAAAAAACGAAAAAAAAUCUGUAGAAGGAACAUGAGGAUCACCCAUGUAAAAG [Mat - Exclusion 4 - Mayanna - D103]”, in that order: 34.7 nM and 30.8 nM.
The like results for “GAAGAACAUGAGGAUCACCCAUGUCAGGAUAUACAGAAGGGAAUAAUAAAAUCUGGAAGUAGAAGGGACAAGAA [Ex 1 May 46]” were, in that order, 32.5 nM and 49.3 nM.
The like results for “GAAGAACAUGAGGAUCACCCAUGUCAGGAUAUACAGAAGGGAAUAAUAUAACCUGAAAGUAGAAGGGACAAGAA [Ex 1 May 43]” were, in that order, 33.9 nM and 46.2 nM.
Take “GAAUGACUAGGAUAUACAUGAGGAUCACCCAUGUGUAUAAAUAAAUACACAAAAGAAAGUAGAAGGAGUCAAAG [Mat - Exclusion 3 - Mayanna mod - D124]”: the figures for the “apparent KD of MS2 coat protein” value in the series with MS2 coat protein [3] and with MS2 coat protein [4] were 20.8 nM and 83.2 nM, respectively.
For “GAGAAGUUAGGAUAUACAGCGGGUAGCCGCGGUGGCCUUAGACAUGAGGAUCACCCAUGUAGAAGGAACGAAAA [Tebied]”, the “apparent KD of MS2 coat protein” value with MS2 coat protein [3] worked out at 28.9 nM; in the series on MS2 coat protein [4] it was 12.6 nM.
“GAUCAGCUAGGAUAUACAUUAAUCCGAAAUGAGAAGAAAGAACAUGAGGAUCACCCAUGUAGAAGGAGCCAGUA [Usinisat]”: the “apparent KD of MS2 coat protein” value in the series on MS2 coat protein [3] was found to be 33.7 nM; in the series on MS2 coat protein [4], 32.1 nM.
The like results for “GCAAAGUGAGGAUAUACGCGAACAAAAAUAAAAAAGAAAGCGUAGAAGGCACAUGAGGAUCACCCAUGUCCAGC [Mat - Exaclusion 4 - Eli mod - D77]” were, in that order, 23.7 nM and 30.3 nM.
As to “GCAGGCCAAGGAUAUACAUGAGGAUCACCCAUGUGAGAGAAAAAAGUGAGAAAGAAAAGUAGAAGGUGGUUUGG [salish99-ex3-113]”, the “apparent KD of MS2 coat protein” value worked out at 71.7 nM in the series on MS2 coat protein [3] and 114 nM in the series with MS2 coat protein [4].
With “GCUGGCGUAGGAUAUACAUGAGGAUCACCCAUGUGAGAGAAAAAAGUGAGAAAGAAAAGUAGAAGGACGUUAGG [salish99-ex3-116]”, the “apparent KD of MS2 coat protein” value in the series with MS2 coat protein [3] amounted to 40.4 nM; in the series on MS2 coat protein [4] it was 106 nM.
For “GCUUGGGUAGGAUAUACAUGAGGAUCACCCAUGUGAGAGAAAAAAGUGAGAAAGAAAAGUAGAAGGACCUGAGG [salish99-ex3-107]”, the “apparent KD of MS2 coat protein” value with MS2 coat protein [3] is 123 nM; in the series on MS2 coat protein [4], 244 nM.
In the case of “GGAAAACAUGAGGAUCACCCAUGUGAGGAUAUCGAUGUCCAAACCAAAGUGCGGGACUCGAGAAGGCACUUGGA [salish99-ex1-37]”, the “apparent KD of MS2 coat protein” value came to 45.9 nM with MS2 coat protein [3] and 28.6 nM with MS2 coat protein [4].
On to “GGAAAGCAAGGAUAUACAAACAAACAAACAAACAAAAGGGAACAUGAGGAUCACCCAUGUAGAAGGUGCAAACA [Exclusion 2 XX]”, for which the “apparent KD of MS2 coat protein” value in the series on MS2 coat protein [3] was 41 nM; in the series with MS2 coat protein [4], 31.8 nM.
For “GGAUGCCAAGGAUAUACAUGAGGAUCACCCAUGUGAGAGAAAAAAGUGAGAAAGAAAAGUAGAAGGUGGUGUCG [salish99-ex3-92]”, in that order: 33.1 nM and 65.2 nM.
The like results for “GGAUGUCUAGGAUAUACAUGAGGAUCACCCAUGUGAGAGAAAAAAGUGAGAAAGAAAAGUAGAAGGAGGUGUCG [salish99-ex3-88]” were, in that order, 35.6 nM and 37.5 nM.
On to “GGAUGUGAAGGAUAUACAUGAGGAUCACCCAUGUGAGAGAAAAAAGUGAGAAAGAAAAGUAGAAGGUCGUGUCG [salish99-ex3-86]”, for which the “apparent KD of MS2 coat protein” value was 34.9 nM in the series with MS2 coat protein [3] and 36.9 nM with MS2 coat protein [4].
On to “GGAUGUGUAGGAUAUACAUGAGGAUCACCCAUGUGAGAGAAAAAAGUGAGAAAGAAAAGUAGAAGGACGUGUCG [salish99-ex3-89]”, for which the “apparent KD of MS2 coat protein” value in the series on MS2 coat protein [3] was found to be 41 nM; in the series on MS2 coat protein [4] it was 38 nM.
For the sequence “GGUUGGCGAGGAUAUACAUGAGGAUCACCCAUGUGAGAGAAAAAAGUGAGAAAGAAAAGUAGAAGGCGCUGACC [salish99-ex3-04]”, the “apparent KD of MS2 coat protein” value in the series with MS2 coat protein [3] amounted to 45.7 nM; in the series on MS2 coat protein [4] it was 242 nM.
With “GUAGUGUGAGGAUAUGAUUAAAAGAAGGGAAAGAGACUGCAUCAGAAGGCACAUGAGGAUCACCCAUGUAUGAA [JR_Exc004_Sub1223]”, the “apparent KD of MS2 coat protein” value came out at 34.3 nM in the series with MS2 coat protein [3] and 45.7 nM in the series with MS2 coat protein [4].
The like results for “GUAGUGUGAGGAUAUGGAAAGAAGAAGAAAAGGUAGAAAAACUAGAAGGCACAUGAGGAUCACCCAUGUAAGAA [JR_Exc004_Sub1710]” were, in that order, 29.1 nM and 20.3 nM.
With “GUCAGCUGAGGAUAUACAGGUGAGGCCGCAUAACAAAAUAUACAUGAGGAUCACCCAUGUAGAAGGCGGAAGAC [Soreramare]”, the “apparent KD of MS2 coat protein” value stood at 41.1 nM in the series on MS2 coat protein [3] and 47.6 nM in the series with MS2 coat protein [4].
In the case of “GUCAGCUGAGGAUAUACAGGUGAUGCCGCAUAACAAAAUAUACAUGAGGAUCACCCAUGUAGAAGGCGGAAGAC [Zalaa]”, the “apparent KD of MS2 coat protein” value in the series with MS2 coat protein [3] was 73.4 nM; in the series with MS2 coat protein [4] it was 20.2 nM.
The like results for “GUGUACAGAGGAUAUACUGGAGCUAGGAAACUAGCAAGAUCACAUGAGGAUCACCCAUGUAGAAGGCUGUACAC [Ex2: 743]” were, in that order, 90.8 nM and 20.2 nM.
With “UAAAGACAUGAGGAUCACCCAUGUGAGGAUAUCGGAGAUAACGGAACAUCAAGUUCGGCGAGAAGGCGCAGGAA [JR_Exc001_Sub405]”, the “apparent KD of MS2 coat protein” value in the series with MS2 coat protein [3] was determined as 33.4 nM; in the series on MS2 coat protein [4], 38 nM.
Consider “UAUACGUGAGGAUAUGCGAAUACCACGUAAGACAUACAGACGCAGAAGGCACAUGAGGAUCACCCAUGUGAACC [JR_Exc004_Sub314]”, for which the “apparent KD of MS2 coat protein” value in the series on MS2 coat protein [3] came to 19.2 nM; in the series with MS2 coat protein [4], 16.3 nM.
For “UAUACGUGAGGAUAUGCGAAUACCACGUUAGACAUAUAGACGCAGAAGGCACAUGAGGAUCACCCAUGUGAACC [JR_Exc004_Sub315]”, the “apparent KD of MS2 coat protein” value in the series with MS2 coat protein [3] turned out to be 21.4 nM; in the series with MS2 coat protein [4], 16.4 nM.
For the sequence “UCCUCACAUGAGGAUCACCCAUGUGAGGAUAUCUGAAAAAAAAAAAAAAAAAAAAAUCAGAGAAGGCACAUGGG [Design 11: Super Stable Short Helix 1]”, the “apparent KD of MS2 coat protein” value came to 37.1 nM in the series with MS2 coat protein [3] and 4.55 nM in the series on MS2 coat protein [4].
Regarding “UCGUGGUCAGGAUAUACAUGAGGAUCACCCAUGUAAAAGAACACAAAGGAGAGACGACGUAGAAGGGACAAAUA [Erqugere]”, the results for the “apparent KD of MS2 coat protein” value in the series with MS2 coat protein [3] and in the series on MS2 coat protein [4] were 43.7 nM and 42.1 nM, respectively.
